In PMC9499535, “Distinct architectural requirements for the parS centromeric sequence of the pSM19035 plasmid partition machinery”:

How the values were obtained:
[1] = biological target: T1, ParB_pSM19035 (ParBpSM, Omega) (plasmid pSM19035, UniProt Q57468 1-71); experiment: EMSA; 2 mM Mg2+; EMSA: 50 mM Tris-HCl pH 7.4, 100 mM KCl, 2 mM MgCl2, 1 mM DTT, room temperature 15 min, 0.05 nM 32P-DNA, 4-12% PAGE. TIRF binding to the salmon sperm DNA carpet (undefined sequence pool) and ATPase assays not listed; settings: protein: recombinant; tags: none stated; chain copies: 2; label: 32P; blunt
T1 sequence: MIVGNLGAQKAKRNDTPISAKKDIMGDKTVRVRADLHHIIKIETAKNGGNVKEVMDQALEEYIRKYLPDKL

[2] = biological target: ParApSM-His6 (non-fluorescent, wild-type) (Streptococcus pyogenes (plasmid pSM19035)) (UniProt Q57280)
[3] = biological target: ParApSM-His6 (non-fluorescent, wild-type) (Streptococcus pyogenes (plasmid pSM19035)) (UniProt Q57280); remark: listed apart in the source
[4] = biological target: ParApSM-His6 (non-fluorescent, wild-type) (Streptococcus pyogenes (plasmid pSM19035)) (UniProt Q57280); remark: listed apart in the source
[5] = biological target: ParApSM-His6 (non-fluorescent, wild-type) (Streptococcus pyogenes (plasmid pSM19035)) (UniProt Q57280); remark: listed apart in the source
[6] = biological target: ParApSM-GFP-His6 (Streptococcus pyogenes (plasmid pSM19035)) (UniProt Q57280); experiment: TIRF microscopy on an nsDNA-carpeted flow cell; ParApSM-GFP bound first to the nsDNA-carpet to ~10% of saturation, then washed with 1 μM ParBpSM-Alexa647 plus 166 nM 3R-parSpSM duplex; room temperature; 1 mM ATP; apparent constants
[7] = biological target: ParApSM-GFP-His6 (Streptococcus pyogenes (plasmid pSM19035)) (UniProt Q57280); experiment: TIRF microscopy on an nsDNA-carpeted flow cell; ParApSM-GFP (1 μM) and ParBpSM-Alexa647 (1 μM) preincubated with 1 mM ATP and 7R-parSpSM (0.5 μM consensus repeats), infused over the nsDNA-carpet for 15 min, then washed with ATP buffer without proteins; room temperature; apparent constants
[8] = biological target: ParApSM-GFP-His6 (Streptococcus pyogenes (plasmid pSM19035)) (UniProt Q57280); experiment: TIRF microscopy on an nsDNA-carpeted flow cell; ParApSM-GFP (1 μM, 1 mM ATP) bound first to the nsDNA-carpet to ~10% of saturation, then washed with 1 μM ParBpSM-Alexa647 without parSpSM; room temperature; 50 mM Tris-HCl pH 7.4, 100 mM KCl, 2 mM MgCl2, 10% glycerol, 1 mM ATP; apparent constants
[9] = biological target: ParApSM-GFP-His6 (Streptococcus pyogenes (plasmid pSM19035)) (UniProt Q57280); experiment: TIRF microscopy on an nsDNA-carpeted flow cell; ParApSM-GFP bound first to the nsDNA-carpet to ~10% of saturation, then washed with 1 μM ParBpSM-Alexa647 plus 125 nM 4R-parSpSM duplex; room temperature; 1 mM ATP; apparent constants
[10] = biological target: ParApSM-GFP-His6 (Streptococcus pyogenes (plasmid pSM19035)) (UniProt Q57280); experiment: TIRF microscopy on an nsDNA-carpeted flow cell; ParApSM-GFP (1 μM) and ParBpSM-Alexa647 (1 μM) preincubated with 1 mM ATP without parSpSM, infused over the nsDNA-carpet for 15 min, then washed with ATP buffer without proteins; room temperature; apparent constants
[11] = biological target: ParApSM^D60E-GFP-His6 (Streptococcus pyogenes (plasmid pSM19035)) (UniProt Q57280); experiment: TIRF microscopy on an nsDNA-carpeted flow cell; ParApSM^D60E-GFP (1 μM) bound first to the nsDNA-carpet, then washed with 250 nM ParBpSM-Alexa647 plus 4R-parSpSM duplex (125 nM heptad); room temperature; 1 mM ATP
[12] = biological target: ParApSM-GFP-His6 (Streptococcus pyogenes (plasmid pSM19035)) (UniProt Q57280); experiment: TIRF microscopy on an nsDNA-carpeted flow cell; ParApSM-GFP (1 μM) and ParBpSM-Alexa647 (1 μM) preincubated with 1 mM ATP and 4R-parSpSM (0.5 μM consensus repeats), infused over the nsDNA-carpet for 15 min, then washed with ATP buffer without proteins; room temperature; apparent constants
[13] = biological target: ParApSM-GFP-His6 (Streptococcus pyogenes (plasmid pSM19035)) (UniProt Q57280); experiment: TIRF microscopy on an nsDNA-carpeted flow cell; ParApSM-GFP bound first to the nsDNA-carpet to ~10% of saturation, then washed with 1 μM ParBpSM-Alexa647 plus 7R-parSpSM duplex; room temperature; 1 mM ATP; apparent constants
[14] = biological target: ParApSM^D60E-GFP-His6 (Streptococcus pyogenes (plasmid pSM19035)) (UniProt Q57280); experiment: TIRF microscopy on an nsDNA-carpeted flow cell; ParApSM^D60E-GFP (1 μM) bound first to the nsDNA-carpet, then washed with 250 nM ParBpSM-Alexa647 plus 36 nM 7R-parSpSM duplex; room temperature; 1 mM ATP; apparent constants
[15] = biological target: ParApSM-GFP-His6 (Streptococcus pyogenes (plasmid pSM19035)) (UniProt Q57280); experiment: TIRF microscopy on an nsDNA-carpeted flow cell; ParApSM-GFP (1 μM) and ParBpSM-Alexa647 (1 μM) preincubated with 1 mM ATP and 3R-parSpSM (0.5 μM consensus repeats), infused over the nsDNA-carpet for 15 min, then washed with ATP buffer without proteins; room temperature; apparent constants
[16] = biological target: ParApSM^D60E-GFP-His6 (Streptococcus pyogenes (plasmid pSM19035)) (UniProt Q57280); experiment: TIRF microscopy on an nsDNA-carpeted flow cell; ParApSM^D60E-GFP (1 μM) bound first to the nsDNA-carpet, then washed with 250 nM ParBpSM-Alexa647 plus 3R-parSpSM duplex (125 nM heptad); room temperature; 1 mM ATP

B1: scrambled 55 bp (nsDNA) (dsDNA)
DNA 1: GGGATCAAACACTTGATAGACAAGTCTTTGACCTAATTGTGAAAATTATGAAGGG
DNA 2: CCCTTCATAATTTTCACAATTAGGTCAAAGACTTGTCTATCAAGTGTTTGATCCC
- Kd [1]: ~1 µM

B2: ParBpSM wild-type (natural protein)
chain: MIVGNLGAQKAKRNDTPISAKKDIMGDKTVRVRADLHHIIKIETAKNGGNVKEVMDQALEEYIRKYLPDKL
- steady-state ParApSM ATPase turnover with 8 μM ParBpSM, scrambled-sequence duplex and nsDNA (pBR322), 37°C [2]: 2.4 h^–1
- steady-state ParApSM ATPase turnover with ParBpSM, 7R-parSpSM duplex and nsDNA (pBR322), 37°C [2]: 20.5 h^–1
- ParBpSM concentration for half-activation of the ParApSM ATPase at high 7R-parSpSM concentration, with nsDNA [3]: 650 nM
- ParBpSM concentration at which the ParApSM ATPase stimulation saturates, with parSpSM DNA of 1-3 repeats and nsDNA [4]: 2 µM
- steady-state ParApSM ATPase turnover with ParBpSM, 3R-1nc-3R-parSpSM duplex and nsDNA, 37°C [5]: 8.3 h^–1

B3: ParBpSM-Alexa647 (ParBpSM-GCE, 1% labeled) (natural protein)
chain: MIVGNLGAQKAKRNDTPISAKKDIMGDKTVRVRADLHHIIKIETAKNGGNVKEVMDQALEEYIRKYLPDKL
modifications: Alexa647 maleimide on the added cysteine (73C); 1% of the protein labelled
- ParBpSM/ParApSM ratio on the nsDNA-carpet (ParBpSM/ParApSM) [6]: 1.3
- apparent koff-fast (~24%) of ParBpSM from the ParApSM-bound nsDNA-carpet (ParBpSM and 3R-parSpSM in the wash) [6]: 1.4 min^–1
- apparent koff-slow of ParBpSM from the ParApSM-bound nsDNA-carpet (ParBpSM and 3R-parSpSM in the wash) [6]: 0.05 min^–1
- ParBpSM/ParApSM ratio accumulated on the nsDNA-carpet (ParBpSM/ParApSM) [7]: 1.2
- koff-fast-B (~70%) [7]: 1.1 min^–1
- koff-slow-B [7]: 0.13 min^–1
- ParBpSM/ParApSM ratio on the nsDNA-carpet after several min of washing (ParBpSM/ParApSM) [8]: 1
- peak density on the ParApSM-bound nsDNA-carpet [8]: 3000 dimers/μm^2
- plateau density on the ParApSM-bound nsDNA-carpet [8]: 2000 dimers/μm^2
- ParBpSM/ParApSM molar ratio on the nsDNA-carpet at the start of the dissociation burst (ParBpSM/ParApSM) [9]: 1.7
- apparent koff of ParBpSM from the ParApSM-bound nsDNA-carpet after its peak (ParBpSM and 4R-parSpSM in the wash) [9]: 3.9 min^–1
- ParBpSM density on the nsDNA-carpet relative to ParApSM after 15 min of infusion (ParBpSM/ParApSM) [10]: 0.67
- koff of the fast-dissociating majority (~75%) of ParBpSM [10]: 7 min^–1
- ParBpSM/ParApSM ratio on the nsDNA-carpet at the initial ParBpSM overshoot peak (ParBpSM/ParApSM) [11]: 1.3
- ParBpSM/ParApSM ratio on the nsDNA-carpet at the end of 15 min of infusion (ParBpSM/ParApSM) [12]: 0.75
- ParBpSM/ParApSM ratio on the nsDNA-carpet within 1 min of washing (ParBpSM/ParApSM) [12]: 0.5
- koff-fast-B (66%) [12]: 1.9 min^–1
- koff-slow-B [12]: 0.23 min^–1
- ParBpSM density on the nsDNA-carpet relative to carpet-bound ParApSM [13]: 2 fold
- ParBpSM/ParApSM molar ratio on the nsDNA-carpet at the start of the dissociation burst (ParBpSM/ParApSM) [13]: 2.8
- apparent koff of ParBpSM from the ParApSM-bound nsDNA-carpet after its peak (ParBpSM and 7R-parSpSM in the wash) [13]: 2.4 min^–1
- ParBpSM/ParApSM ratio on the nsDNA-carpet at the initial ParBpSM overshoot peak (ParBpSM/ParApSM) [14]: 1.75
- apparent koff of ParBpSM from the ParApSM^D60E-bound nsDNA-carpet after its peak (ParBpSM and 7R-parSpSM in the wash) [14]: 0.036 min^–1
- ParBpSM density on the nsDNA-carpet relative to ParApSM after 15 min of infusion (ParBpSM/ParApSM) [15]: 0.67
- koff of the fast-dissociating majority (~75%) of ParBpSM [15]: 4 min^–1
- ParBpSM/ParApSM ratio on the nsDNA-carpet at the initial ParBpSM overshoot peak (ParBpSM/ParApSM) [16]: 0.6
